Measurements taken from PMC9576894.

Molecular target: MUC4 glycopeptide
Experiment: peptide or protein array; glycan microarray, components printed on epoxy slides; re-expressed antibody in solution at four concentrations from 1.5 to 100 μg/ml on the 873-component array; PBS pH 7.4, 0.05% Tween-20, 3% BSA; 37 °C, 3.5 h; detected with Cy3 anti-human IgG; apparent KD estimated by the method of Gordus and MacBeath

B1: ADI-47299 (antibody, V domains shown)
VH: QVQLVQSGGGVVQPGRSLRLSCAASGFTFRLYSMHWVRQAPGKGLEWVGVISHTVTDKLYADSVKGRFSVSRDNSKNTLFLQMDSLRAEDTAVYYCARDGFDYWGQGTLVTVSS
VL: EIVMTQSPLSLPVTLGQPASISCKSSQSLVYSDGDTYLNWFQQRPGQSPRRLIYKVSKRDSGVPDRFSGSGSGTDFTLKISRVEAEDLGVYYCMQGTHWPLTFGPGTKLEIK
  Kd: > 1000 nM
